# Laboratory results taken from patent publication US6300088A, “Method of detecting prostate specific antigen” (Duke University, priority 1998, dated 2001).
# No end group written: not given here.
# B1: ^125 I-α1 -ACT: α1-antichymotrypsin, purified as previously described (Salvesen et al.) (protein, UniProt P01011 24-423, looked up)
# Alpha-1-antichymotrypsin: HPNSPLDEENLTQENQDRGTHVDLGLASANVDFAFSLYKQLVLKAPDKNVIFSPLSISTALAFLSLGAHNTTLTEILKGLKFNLTETSEAEIHQSFQHLLRTLNQSSDELQLSMGNAMFVKEQLSLLDRFTEDAKRLYGSEAFATDFQDSAAAKKLINDYVKNGTRGKITDLIKDLDSQTMMVLVNYIFFKAKWEMPFDPQDTHQSRFYLSKKKWVMVPMMSLHHLTIPYFRDEELSCTVVELKYTGNASALFILPDQDKMEEVEAMLLPETLKRWRDSLEFREIGELYLPKFSISRDYNLNDILLQLGIEEAFTSKADLSGITGARNLAVSQVVHKAVLDVFEEGTEASAATAVKITLLSALVETRTIVRFNRPFLMIIVPTDTQNIFFMSKVTNPKQA
# modifications: 125I label
# Legend:
# [1] = mouse, in vivo, iv
# Method: (§1) Plasma Elimination Studies--This procedure has been described in detail elsewhere. […] In brief, approximately 1.0 μg of radioiodinated protein or peptide was injected into the lateral tail vein of CD-1 mice. Blood samples of 25 μl were collected at timed intervals via retroorbital puncture. The initial time point, taken 5-10 seconds after injection, was considered to represent 100% radioactivity in circulation. Each preparation was studied at least in triplicate.
# [2] = Plasma elimination studies in CD-1 mice (radioiodinated protein or peptide injected into the lateral tail vein)
# Method: as §1
# [3] = Tissue distribution of radioactivity in organs after the plasma elimination experiments (γ-counter); assay type: in vivo; conditions: mouse, after plasma elimination experiment; FIG. 5
# From the text: Each preparation was studied at least in triplicate.
# Following the plasma elimination experiments the organs of the test mice were examined for radioactivity using a γ-counter.
molecule,measurement,setting,value
Ala-Pro-Leu-Ile-Leu-Ser-Arg (APLILSR; not fully specified; printed as Ala-Pro-Leu-Ile-Leu-Ser-Arg) [activation peptide],effect of excess unlabelled activation peptide on clearance rate / half-life,[1],not significantly affected
same,plasma elimination half-life of the peptide,[1],less than 2 minutes
^125 I-α1 -ACT.cndot.PSA complexes: complex of prostate specific antigen with the protease inhibitor α1-antichymotrypsin,half-life of removal from the mouse circulation,"[2]; i.v. lateral tail vein, labelled complex injected alone",approximately 20 minutes
same,half life in mouse circulation on coinjection with excess unlabeled complex,"[2]; i.v., coinjected with a large excess of unlabeled α1-ACT·PSA complexes",several hours
same,half life of complex compared to native α1-ACT,"[2]; mouse, i.v., FIG. 3",significantly reduced
B1,half life in mouse circulation,"[2]; i.v. lateral tail vein, injected alone, estimated",several hours
same,organs with predominant radioactivity (tissue distribution),[3],bladder and kidney
